Data reported in paper PMC4336609.

Biological target: 14-3-3β (UniProt P31946)
Assay: GST-14-3-3β pull-down from cell lysate
Conditions: reference: wild type; sites T181

binding against the reference: lost
Substance: XLF (from UniProt Q9H9Q4) T181A
